Earlier results on one substance are cited in article PMC12858339.

The data set addresses Calmodulin (Homo sapiens) (UniProt P0DP23).

Regarding HIV-1 MA MA (from UniProt O93182), the Kd (in general, a measure of binding affinity in units of concentration) is 2 µM.
